A short description of the series: amyloid nucleation score (Sup35N fusion, yeast selection) (log enrichment); library NNK1; higher = more nucleation; inactive = no reads after selection. A digest of the protocol: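 Random libraries were run with three technical output replicates. In each, psi-negative yeast expressing Sup35N fused to peptides of 20 random codons were induced 24 hours with 100 μM copper sulfate and grown 7 days at 30°C on medium lacking adenine and uracil, and input and output plasmid inserts were Illumina-sequenced. The nucleation score is the DiMSum log enrichment of output over input reads, centred on the mode score of non-aggregating sequences, and sequences under 100 input reads were excluded.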

± gives the uncertainty stated by the source.

LYVTLV gave an amyloid nucleation score of 2.23 ± 0.17. The substance FCYIHGILGRSVEYDDFCLL showed an amyloid nucleation score of 0.184 ± 0.36. For the substance PQRRSHREKA, the amyloid nucleation score is -0.557 ± 0.62. As to EFKLIDLFLLYWLSREHNQF, the amyloid nucleation score turned out to be 0.391 ± 0.42.

The substance GLMDRRTFITICVYPFMESW came in with an amyloid nucleation score of 4.37 ± 0.071. Substance HSSSSHGEKCGYVGNSHPSS came in with an amyloid nucleation score of 0.691 ± 0.92. As to YPGRWSSYRLEGSTKNARNG, the amyloid nucleation score entry was “inactive”. MCCCLDDEGDHLNWFKRLRC showed an amyloid nucleation score of 1.52 ± 0.49. As for YGFKSRDKPFNL, the amyloid nucleation score came to 0.008 ± 0.44. YILWHEIFQDCLTRDIIRLM showed an amyloid nucleation score of 0.248 ± 0.54. With KLYNGLQHVQAGTLVMQ, the amyloid nucleation score was 0.46 ± 1.2. In turn, NGLFIRYSVVMAYSELEVVG displayed an amyloid nucleation score of -0.162 ± 0.7.

In turn, KMWIRCVIGVRMLYPFARCG returned an amyloid nucleation score of -0.138 ± 0.49. Substance YFDWTRVGYNYGSILLPVEA had an amyloid nucleation score of 0.135 ± 0.51.

With NNDINFSDLFRCGERTYVFW, the amyloid nucleation score came to 2.24 ± 0.18. On to GHWLRQVSRRLVPADDCMVQ, for which the amyloid nucleation score result was “inactive”. Consider LALHEWLWLFDTFH, for which the amyloid nucleation score was -0.097 ± 0.62.

Consider PVGNPLD, for which the amyloid nucleation score is -0.039 ± 0.18. Take KCLSLNCMPYTFLLSRYYPY: the amyloid nucleation score result was “inactive”. CIFSRNQGLIHRLEDNGH registered an amyloid nucleation score of 0.685 ± 0.33. On to VRWDPVRRIWFALR, for which the amyloid nucleation score entry is “inactive”. On to RLEYCSRRWLANTLSGGRSL, for which the amyloid nucleation score is 0.002 ± 0.96.

Consider KSMMDMSYLMEYIGI, for which the amyloid nucleation score was -2.65 ± 2.4. To RLFALLWNDFDRSGVAMPVL belongs -0.379 ± 0.36; to CAVLLVIGTAANEMCARRLI, -0.197 ± 1.9.

On to CLTLPYYSIYAVGESRMFEW, for which the amyloid nucleation score is 0.003 ± 0.27. The substance VSYNVRIGWAVYN registered an amyloid nucleation score of 0.89 ± 0.27. Consider CSAFDVIN, for which the amyloid nucleation score is -0.556 ± 1.4. Regarding SNFINLGRWFRIDL, the amyloid nucleation score was determined as 0.377 ± 0.53. In turn, SYIGDCEIFIKEPVGANNLE had an amyloid nucleation score of -0.909 ± 2.7. For the substance FVPLTVN, the amyloid nucleation score was -0.068 ± 0.28. For NPHEDRGLESQSAPGGRKWR the value was 1.74 ± 0.64. As for VGRNQNKTDEG, the amyloid nucleation score was determined as 0.564 ± 0.95. With GILMVELWSRR, the amyloid nucleation score stood at 2.56 ± 0.18. RVDHVGRGQSREGGPDAGRV displayed an amyloid nucleation score of 0.217 ± 0.26. In turn, VLHEGCIMFKKLLLKALCRR yielded an amyloid nucleation score of -0.128 ± 0.45. To LWVVPLE belongs -0.643 ± 1.9; to GKPVDRLS, 0.066 ± 0.28. On to TSTVG, for which the amyloid nucleation score result is “inactive”.

NKLRGGVGERSVLQGWIEED gave an amyloid nucleation score of -0.052 ± 0.53.

Substance VLCNLTVS returned an amyloid nucleation score of -0.907 ± 1.8. Substance RVSVDRPQRVGTGSPCCGGD yielded an amyloid nucleation score of 2.77 ± 0.11.

In the case of YICEFMIRTMKQPWPSKGEG, the amyloid nucleation score turned out to be 0.542 ± 0.32. With FLWDNAVSKVKFITFVWPHI, the amyloid nucleation score was determined as 0.86 ± 0.32. For GQWGVVHIQQGVQYCATIRG the value was 0.331 ± 0.69; for LGFRVNWIDHPRSNRSTAGL, 0.604 ± 0.97. In turn, HCYHGRGADR gave an amyloid nucleation score of 0.181 ± 0.74. To TAPKIFLGGIL belongs “inactive”.

The substance AMNGVLVIGGV gave an amyloid nucleation score of -0.668 ± 1.7. In turn, LLFLSMMVSASCC showed an amyloid nucleation score of 1.09 ± 0.39. ARTGPTSASVGGLQPVCPGD yielded an amyloid nucleation score of -0.019 ± 0.55.

Turning to KADIFYSLCFLRVEG, the amyloid nucleation score was -0.338 ± 0.79.

Consider LSRLCGSRLLVRVVWRHYRG, for which the amyloid nucleation score is -0.21 ± 0.28. For IGMWSHWR the value was 0.137 ± 0.39; for SCSLITQGFRYPWLIYHRCY, 0.436 ± 0.93. Consider FCWHAFLSVTRFGRKIFFRF, for which the amyloid nucleation score turned out to be 0.426 ± 0.35. For NNYYA, the amyloid nucleation score was -0.616 ± 0.52. In the case of ALPREWKCMSLLFENGSGNS, the amyloid nucleation score result was “inactive”.

NFSYMLLLAPSKVTRAGCFV came in with an amyloid nucleation score of -0.134 ± 1.3. SIYALVSCSVFVTAMDAVQA gave an amyloid nucleation score of 4.17 ± 0.061. Consider VCFEVWSGHFSASLTM, for which the amyloid nucleation score was determined as 0.663 ± 0.44. For MTVCM the value was 0.125 ± 1.4; for LYLNADLYYE, 0.005 ± 0.7. On to SGTESEFKVKMNKLQSSYMG, for which the amyloid nucleation score is -0.022 ± 0.45. With DRITLLRYPWKSIAISIDEG, the amyloid nucleation score was found to be 0.993 ± 0.36. For VVESTGFIWAGEWVLWIEFS the value was -0.356 ± 0.82. As for KSYVCGTLTFRLGSVHCVNM, the amyloid nucleation score came to 7.025 ± 0.057. For LLFYLRSLKMYVLYSGHTMS the value was 1.25 ± 0.45; for PWVTLVRAMCMFINVDLVSR, 0.201 ± 0.72.

Consider PLCHWKA, for which the amyloid nucleation score was -0.325 ± 0.53.

On to FGIPAHNLLCYGCFLNWILV, for which the amyloid nucleation score result was “inactive”. The substance YSQYVVTSFTSLREVS returned an amyloid nucleation score of -0.332 ± 0.25.

Turning to MGLQTFVVTRMV, the amyloid nucleation score is -0.758 ± 0.42.

In turn, DFLFNGLNITRCYFA came in with an amyloid nucleation score of 0.193 ± 0.72. Substance TLTRYC displayed an amyloid nucleation score of -0.086 ± 1.2. As to WGVALRDAATAVDVGLVVRF, the amyloid nucleation score stood at 0.37 ± 0.62. IRRYLSCPYNISIVYSENIV showed an amyloid nucleation score of -0.185 ± 0.71. To YSIVFGWLRYRLDWMCLISL belongs 0.055 ± 0.26; to TMSASLNYLTLVMN, 0.129 ± 0.59. As for EKYDGCIFEEKQMIAGAHGM, the amyloid nucleation score turned out to be 1.15 ± 0.88. In the case of FFRRS, the amyloid nucleation score is 0.924 ± 0.26. For FPYRGLLFTRLIPAAVGKGA, the amyloid nucleation score came to 0.171 ± 0.74. In the case of FWLNLPAWISFAMFVCIVYV, the amyloid nucleation score is -0.132 ± 0.47. For the substance RMVNKTECTRRRIITTSNWI, the amyloid nucleation score is 0.869 ± 0.81. STHNTRFGVY showed an amyloid nucleation score of 0.167 ± 0.24. On to DISDRGTDIFVSTPGSSMLS, for which the amyloid nucleation score was 0.503 ± 0.43. Regarding VIHVSTYDSGVLPLKEDGTF, the amyloid nucleation score was 0.151 ± 0.4. FWPFHDDLDVVSAFCYIRIL yielded an amyloid nucleation score of -0.707 ± 0.82. For the substance SSGSMCTLFSSE, the amyloid nucleation score came to 1.75 ± 0.57. Turning to LRGRLYASGRVEFYHKQSLF, the amyloid nucleation score was 0.526 ± 0.83.

In turn, NTRYYFENNMR returned an amyloid nucleation score of -0.599 ± 0.4. For LLYRMKVFADVGGDVLKSEG, the amyloid nucleation score entry was “inactive”. For VQFSLGALFWWPWGR the value was 2.27 ± 0.22; for PYWSDKWVFCRLKVVFIHVL, -0.066 ± 0.69; for RTDWYGEDWHYV, -1.31 ± 1.4. In turn, FRWPSLLGNLLKLGVDTAD registered an amyloid nucleation score of -0.126 ± 0.38. As for VRVPCDIAIYMYGGLKALLS, the amyloid nucleation score was -0.245 ± 1.3. FGNRELFLYFVCVKRDILVG returned an amyloid nucleation score of -1.23 ± 0.64. The substance VAAFEIMHLLISCDNRCRFQ displayed an amyloid nucleation score of 0.337 ± 0.38.

In the case of LLVWNVNGSAMSCNDRCLQS, the amyloid nucleation score turned out to be 7.141 ± 0.049. For KMGYFE the value was 0.915 ± 0.45; for RQGLGAVVNENV, 0.137 ± 0.43. Regarding WVKCLPGGLQAFWYS, the amyloid nucleation score was -0.369 ± 1. Substance GLTGLTLWARATRRRVGTLS showed an amyloid nucleation score of -0.153 ± 0.59. For the substance EYIMYYWIRIVYFVINGYLV, the amyloid nucleation score is 0.534 ± 0.36. FDWGGTAYKKA returned an amyloid nucleation score of 1.01 ± 0.97. To SDLMWVLSCESLRITHRLVG belongs 1.93 ± 0.56; to SQLARLLFIAGIVPTRARVI, 0.144 ± 0.64. With KSFYGNFRGFFNALNIYHSS, the amyloid nucleation score came out at 1.83 ± 0.28.

Turning to AGRSWSCMLVTVWSRTRVPL, the amyloid nucleation score was 0.351 ± 0.6. Turning to QGCPRVWRSQSCCGVGGVIP, the amyloid nucleation score entry is “inactive”. To VMDQLIV belongs “inactive”; to YGCDGDVFRLIVWDVIAPSE, 0.044 ± 0.34; to CWYLYRFSNTMMNRTTLPCG, -0.169 ± 0.53. The substance FDVIGSCVGDQWTAGMDWTL showed an amyloid nucleation score of 0.429 ± 0.51. To CGEFGR belongs -0.682 ± 0.52; to VYHSCSDMCFKAFQVNTYQC, 1.16 ± 0.66; to IPMPMLRRKKTGYLLSTGSA, 0.532 ± 0.49. The substance LCKVPLNT came in with an amyloid nucleation score of 1.36 ± 0.9. Consider LRYFDFCISRLDSEGN, for which the amyloid nucleation score is 0.264 ± 0.64. Consider IMGVDVLGYTLDPVGDCNVF, for which the amyloid nucleation score was determined as 0.412 ± 0.73. For MLLIRNFQFTTLFVCHFSAE, the amyloid nucleation score was -0.038 ± 0.16. As to VLYGADDVLVRVSTCVYMGG, the amyloid nucleation score is -0.136 ± 0.25. Regarding RRSPGYMDLCWNGWFGRAVR, the amyloid nucleation score is 0.207 ± 0.5. Regarding PFEYLVRLIYCEDVAYLGTG, the amyloid nucleation score is -0.148 ± 0.62. For the substance GVVITSPWGA, the amyloid nucleation score came out at 1.18 ± 0.85. SFFLLPMWLIVGSRGHQRRT: the amyloid nucleation score entry is “inactive”. For GWSNSFA the value was 0.123 ± 0.44; for LNNYNGVTVGWGNSWYLYLG, -0.116 ± 0.45; for QHTNTSLSVTTPPVLYWNHC, 0.419 ± 0.45. For VNGYFAASDECFWCRSAGPN the value was 0.555 ± 0.34; for TPKLIAV, -2.05 ± 1.9. WFLCSSRFISLLQ: the amyloid nucleation score was -1.49 ± 0.47. In turn, SKTVVTKVKLSIWAGRVLRF gave an amyloid nucleation score of -1.14 ± 1.9. In the case of WKKPIQGSVW, the amyloid nucleation score came out at 0.295 ± 0.49. On to DVAPLGCGEPCYGSY, for which the amyloid nucleation score was -1.22 ± 1.4.

With DWDSALPSLNFDSETPFYKS, the amyloid nucleation score was -0.649 ± 0.48. For FILPLCMGVLLSAIETLGTC the value was 1.09 ± 0.81; for RCIVWC, 0.207 ± 0.56.

For WGNLASRLQALDQVRRSGSM, the amyloid nucleation score was -0.56 ± 0.57.

In turn, EDALRIFRKETDPDL had an amyloid nucleation score of 0.681 ± 0.29.

The values above are taken from the supplement of paper PMC12042874.
